Literature values in US20250320497A1, “COMPOSITIONS AND METHODS FOR TREATING HEPATITIS B VIRUS (HBV) INFECTION AND HBV-ASSOCIATED DISEASES” (priority 2022, published 2025).

System: chronic HBV infection
Details: Phase 1, patients with chronic HBV infection

B1: GC 1102: fully human anti-HBsAg mAb in development for chronic HBV infection (antibody, chains of the INN, looked up, V domains shown)
VH: EVQLVESGGGLVKPGGSLRLSCSASGFSLTKYKMTWVRQAPGKGLEWVSSISSTSRDIDYADSVKGRFTISRDNAKNSLFLQMSSLRVDDTAVYYCTRDGWLWGWDVRSNYYYNALDVWGQGTTVTVSS
VL: DIVVTQSPSSLSASVGDRVTITCRASQGIYNSIAWYQQKPGKAPKLLLYSTSTLLSGVPSRFSGSGSGTDYTLTITNLQPEDFATYYCQQYFVTPETFGQGTKLEIK
For B1, the “lowering of HBsAg” value is given as 2-3 log10 IU/mL and the tolerability is given as “well tolerated”.
